# Experimental data published in the DeepSol protein solubility set.
# Experiment: soluble on expression in E. coli; label from the status in PepcDB or PDB records
row,Sequence,soluble on expression in E. coli
1,MSYNNLLAIEKPVRYTGDEIGSRPKEDAELRFVLAFPDVYEVGMSHLGLQILYDILNREEGIAAERAYTPWPDREAQLRSLGESLATLESQTSLARADIIGFTLQYELSYTNILTMLDLAGIPFRAAERGDEFPLVIAGGPCACNPEPLADFLDAVLLGDGEEAVVEIAAACLERKRNGESKQWLLERLASIDGVYVPSFFEPRYHDDGTIDAIIPLRPAHGRVRRRFLSDLDTAPYPTAPVVPFLKTIHDRVSIEIGRGCTRGCRFCQAGYLYRPVRERSPETILKLVEETLRNTGYDEVSLLSLSTGDYGCLTPLLRELMVRYAHERIAVALPSLRVGSLSQELVEEIRKVRKTGFTLAPEAGSERLRTIINKGISEEDLLRNAFEAFSNGWRVIKLYFMIGLPGETEEDLVGIADLARKVKQEGKRAGSGGEVNVSVSTFVPKPHTPFQWEPQITTEETVAKQRFLRDELKKRKLGLKWHDAPLSFMEGVFARGDRRLGAVLAKAWELGCRFDGWGDRLKSTTWHEAFAVCGIDPAFYHRRRGIDETLPWDHLDFGVTRAFLRQELEKAWAGEPTGDCRTGRCTGCGICDFDRIAMRTTDPAWQKGLEHHHHHH,not soluble
2,MGSDKIHHHHHHMKLAFICTEKLPAPAVRGGAIQMMIDGVTPYFSSRYDLTIFSIEDPSLPKRETKDGVHYIHLPKEHYREAVAEELRASSFDLIHVFNRPLNVSLYKKASPNSKIVLSLHNEMFSEKKMTFAQGKEVLDNVSMITTVSEFIKQTVIERFPEAEDITKVVYSGVDLNSYPPVWTMKGSAVRKTYRKKYGIEDKKVILFAGRLSPTKGPHLLIHSMRRILQQHPDAVLVIAGGKWFSDDSENQYVTYLRTLALPYRDHIIFTKFIPADDIPNLFLMADVFVCSSQWNEPLARVNYEAMAAGTPLITTNRGGNGEVVKHEVTGLVIDSYNKPSSFAKAIDRAFTDQELMNKMTKNARKHVEALFTFTHAAKRLNTVYQSVLTPKNKQFPPPFLTQNFDLSSINQLFVKAKT,not soluble
3,MAHHHHHHSLIDLHIHSNYSDGQGSVEEIARRAKERGLKAIAIVDHSIELPFGLTEKKARMREIEIENAASLYGIKIYSGIECSINAAGEIVLPDFDFDFIIASVHEFVYGQAYYERVIRCLESHDVDVLGHPFSPLFGFDGRLAEMDEKLLDVVEERGVAVELNSSHKSPQDEFLQLCRDRKIAYSIGSDAHSLSGVGEVGWSVEKAKRYMAGAKLFTPEG,not soluble
4,SFQGADSQAGKSGSRSMKPPGGESSDLFGSPEEGISSSKPNRMASNIFGPTEEPKNIPKRTNPPGGKGSGIFDESTPVQTRQRLNPPGGKTSDIFGSPVTATAPLAHPNKPKDHVLLCEGEDSKSDLKAATDSTPRGEQSDKGSSKEVEHAKIPEPTPTVDSHEPRLGPRPRSHNKVLNPPGGKSSLSFY,soluble
5,MAHHHHHHMYVFRFHISSFHSFLVNFLQPSRGVGEPSRLLDHLETHPSYMRRVTSTAVHRTVSSVLSPALLPSFNGTLLLSVCFASCSAAPVRNLYKRLGLDHKATSEEVKAAYRQRALECHPDVVDDNRKAQAEVDFRAVSEAYDVLIDPQKRKEHDKALGLERTVPPAKKQQEGEGVGCDSKGSFNRGVTRPRNRKPFVRGDADRNFREAFHGMSLDQVLFRERLRQRRMQKQMEEKAKEGDDGSPAGREESIRRVAAAAAERFAEKVRRQYGPGMLRHARVYTSLSRDPQPPPSDYMPFRPFHGWTVPNGVRTPPEPTLGPTAKVEDVKDVQLAEPAVGDASHQRKLPKHFPVVQAPDGSSLLREEAIACMERERRLPHNMGKLYSYHRPY,not soluble
6,MLRSNLCRGSRILARLTTTPRTYTSAATAAAANRGHIIKTYFNRDSTTITFSMEESSKPVSVCFNNVFLRDASHSAKLVTTGELYHNEKLTAPQDIQISEDGKSLVVKWKDGGHHQFPLQFFIDYKGSSFVSPATRKQESRYRPQLWNKRILKDNVKDLLSVSYNEFIDPKDDSKLFQTLVNLQKFGIAFISGTPSSSSEGLTIQKICERIGPIRSTVHGEGTFDVNASQATSVNAHYANKDLPLHTDLPFLENVPGFQILQSLPATEGEDPNTRPMNYFVDAFYATRNVRESDFEAYEALQIVPVNYIYENGDKRYYQSKPLIEHHDINEDNTLLGNYEALIKCINYSPPYQAPFTFGIYDKPSDLNNNLDLNLITTPAKLTERFLFKSFIRGLNLFESHINDFNNQFRLQLPENCCVIFNNRRILHANSLTSSNQQWLKGCYFDSDTFKSKLKFLEEKFPHDK,soluble
7,MAHHHHHHMLDFLDTINKYTLRSGSVTHIGGKISKKCAAQLVGSLVLQGRLNHYCAALAAQFMVSSEVLVVASRDAVQGISCEGCTLERQNLSSVPDTGEIFGVATTGNNVVVGYSAGVAMFSCKLELEKIYTLSEYTNSILGIAVTPDGSCLATGGANAIVTVWSRDMNPVHYLAGHTDWVRFVKFTIMDGRGLELFSTGDDGLVLHWDPLVGTLLSRIDFFHGQDIHAFEVSWRTGLIGIARDTPTICLYKPQISGIASNHAVGAVRLEQIGRIDDAHHSVLTALRFSNDSQWIVSAGEDETLSVSSVCQLKRVFVCETFIVRRHCMTFMNTFTSVCVLASPPESSAIIVVACATDGTVVQWVVNPETFKCTYTKKLQLL,not soluble
8,MDVRQVLHMKGGAGENSYAMNSFIQRQVISITKPITEAAITALYSGDTVTTRLAIADLGCSSGPNALFAVTELIKTVEELRKKMGRENSPEYQIFLNDLPGNDFNAIFRSLPIENDVDGVCFINGVPGSFYGRLFPRNTLHFIHSSYSLMWLSQVPIGIESNKGNIYMANTCPQSVLNAYYKQFQEDHALFLRCRAQEVVPGGRMVLTILGRRSEDRASTECCLIWQLLAMALNQMVSEGLIEEEKMDKFNIPQYTPSPTEVEAEILKEGSFLIDHIEASEIYWSSCTKDGDGGGSVEEEGYNVARCMRAVAEPLLLDHFGEAIIEDVFHRYKLLIIERMSKEKTKFINVIVSLIRKSD,soluble
9,MSTSWRIRIMLTIHAKLVEAMLAQAHKDHPFEICGVIAGPEKSNLPLRLIPMRNAAQSETFFKFDPQEQLQVWREMEARGEEPIVIYHSHTHTPAYPSRTDVQYASQPQSHYVIVPTDPAYGEEIRSFRILDGMVTEERIRMINSYKAEWELSMEAMVALEHHHHHH,soluble
10,MPSDSTSNIDTTQRQSADLMAEGFGAGVNAPFLVIVDTHEVNADSTALQPLIEAQEPEEGEFDREQAARFATYMYVTQTYNSNIDVKNAQIISVNDDFTAAQILVTPYTGPADKETPELMHVLRAQEAQIEDVTGTELGTTGFTAVQLDITEQLEDAMPVYLEHHHHHH,not soluble
11,GMTGFVINTRRAPFDDWRLREALLLAFNFEFINDTVTGGVMPRITSYFSGTDLAYRPGTASGREAELLAPFAADLPPGTLEGYALPQGDGTARNRTNLRRAAQFLEQAGFRIEQGQLLGPDGAPLALRFLLRQGDSDMQTVLEIYTRALERLGIAAQIEKVDNAQYTARVAELDFDLTPFRRDLSLSPGNEQRLYWGSHSAGQPGTRNLMGAASPAIDAMIDRMLAATTEDELTAATRALDRVLTAGRYVIPIWRFD,not soluble
12,GSHMGIKNDLEIRLQKLQQQGNFKNYLEQYPTDASTAAYFLIEIYNDGNIGGRSVIDAGTGNGILACGSYLLGAESVTAFDIDPDAIETAKRNCGGVNFMVADVSEISGKYDTWIMNPPFGSVVKHSDRAFIDKAFETSMWIYSIGNAKARDFLRREFSARGDVFREEKVYITVPRIYRHHSYDRARIEAVIFGVRNHSF,soluble
13,MGSDKIHHHHHHMPLLDIRNLTIELDTPEGTVKVLEKVSLTINPGEIHGLVGESGSGRSLLAKAILGVLGPNWHIIADRMMWDGKNLLEMSSKQRRCLMGSEMAMIFQDPSGSLDPVKTIGSQLIEAMVPNKNIPFWRRGKATYLNAQKWLHKVGIKKPKQLMKCYPWELSEGECQKVMIAMAVANHPKLLIADEPTNSMELNTQAQIFRLLSQLNQLQNVSILLVSHELETMVHWCDNLTILYSGQVMESGPVSEMVAMPYHPYTRALLKNLPDHTEKMRHKANLPTLQGSSPSLQHLPAGCRLGPRCPEAQRQCVKQPNLEHIKDRYFACHFPYQSEQEDDDAIA,not soluble
14,MSLGDGNVEVAIIAYPYMSNFNEFYALVKSNARVSFVRKPKETAKADLVILPGSRNTLESLKWLVENGFVEQLRQRSMNILGICGGFQILGKKIVDPYGIEAGYPTEYEGLGIFDINVHYSKDKVVSMTTGISEYGEMNGYEIRRGVIKYMGEKPLLKITLRNGEKVSVEDGAKKDNIIGISVHGTLFSDGMKKLLKEFNINIHSQSMEEGHHHHHH,soluble
